Measurements reported in the Immune Epitope Database (IEDB).

Legend:
[1] = target: HLA-A*02:01; assay: IEDB peptide-MHC binding, purified MHC/competitive/fluorescence; ≥ and ≤ were set here for values at or beyond the usual limits of such assays
[2] = target: HLA-A*30:01; assay: IEDB peptide-MHC binding, purified MHC/competitive/radioactivity; filed as Kd, often an IC50 or EC50 that approximates it; ≥ and ≤ were set here for values at or beyond the usual limits of such assays
[3] = target: HLA-A*02:03; assay: as above
[4] = target: HLA-A*02:06; assay: as above
[5] = target: HLA-A*02:02; assay: as above
[6] = target: HLA-A*02:01; assay: IEDB peptide-MHC binding, purified MHC/direct/fluorescence; filed as Kd, often an IC50 or EC50 that approximates it; ≥ and ≤ were set here for values at or beyond the usual limits of such assays
[7] = target: HLA-A*03:01; assay: IEDB peptide-MHC binding, purified MHC/competitive/radioactivity; filed as Kd, often an IC50 or EC50 that approximates it; ≥ and ≤ were set here for values at or beyond the usual limits of such assays
[8] = target: HLA-A*30:02; assay: as above; settings: source organism: Dengue virus 2 Jamaica/1409/1983
[9] = target: HLA-A*23:01; assay: as above
[10] = target: HLA-A*11:01; assay: as above; settings: source organism: Dengue virus 2 Jamaica/1409/1983
[11] = target: HLA-A*31:01; assay: as above; settings: source organism: Mammarenavirus brazilense
[12] = target: HLA-A*68:01; assay: as above; settings: source organism: Mammarenavirus brazilense
[13] = target: HLA-A*33:01; assay: as above; settings: source organism: Mammarenavirus brazilense
[14] = target: HLA-A*26:01; assay: as above
[15] = target: HLA-A*03:01; assay: IEDB peptide-MHC binding, purified MHC/direct/fluorescence; filed as Kd, often an IC50 or EC50 that approximates it; ≥ and ≤ were set here for values at or beyond the usual limits of such assays; settings: source organism: Vibrio cholerae
[16] = target: HLA-B*58:01; assay: as above; settings: source organism: Mycobacterium tuberculosis variant bovis
[17] = target: HLA-A*24:02; assay: IEDB peptide-MHC binding, purified MHC/competitive/radioactivity; filed as Kd, often an IC50 or EC50 that approximates it; ≥ and ≤ were set here for values at or beyond the usual limits of such assays
[18] = target: HLA-A*01:01; assay: IEDB peptide-MHC binding, purified MHC/direct/fluorescence; filed as Kd, often an IC50 or EC50 that approximates it; ≥ and ≤ were set here for values at or beyond the usual limits of such assays; settings: source organism: Homo sapiens
[19] = source organism: Zaire ebolavirus
[20] = source organism: Dengue virus 1 Brazil/97-11/1997
[21] = source organism: Vaccinia virus WR
[22] = source organism: Dengue virus 2 Jamaica/1409/1983
[23] = source organism: Lymphocytic choriomeningitis virus (strain Armstrong)
[24] = source organism: Mammarenavirus brazilense
[25] = source organism: SARS coronavirus Tor2

With QDQDHTQEA the IC50 [1, 19] was ≥ 321000 nM.

In the case of RFLAIPPTA, the Kd [2, 20] is reported as 127 nM.

RILSEKRKDT was tested, and the Kd [3, 21] was 4160 nM, the Kd [4, 21] was 6860 nM and the Kd [5, 21] was 711 nM.

Sequence RLGPTLMCL has an IC50 ([1]; source organism: Homo sapiens) of 1780 nM.

For RMIAISAKV, the Kd ([6]; source organism: Camelpox virus M-96) was 3.4 nM.

For RQLTSNVDV, the Kd [3, 21] was 9760 nM, the Kd [4, 21] was 170 nM and the Kd [5, 21] was ≥ 50800 nM.

In the case of RSEELSFTV, the IC50 [1, 19] is reported as 2380 nM.

In the case of RTIDAINKCV, the Kd [3, 21] is reported as 334 nM, the Kd [4, 21] is reported as 341 nM and the Kd [5, 21] is reported as 10800 nM.

Sequence RTMPNESRV has a Kd [3, 21] of 100 nM, a Kd [4, 21] of 155 nM and a Kd [5, 21] of 140 nM.

RTRVGTKHA showed a Kd [2, 22] of 0.02 nM.

In the case of RTTWSIHAK, the Kd [2, 22] is reported as 80.9 nM and the Kd [7, 22] is reported as 6.99 nM.

RVAAEGINY showed a Kd [8] of 48.4 nM.

In the case of RVRYLTRNY, the Kd [2, 21] is reported as 5.62 nM.

In the case of RVSTGSQLA, the Kd [2, 20] is reported as 81.3 nM.

RVSTVSQLA was tested, and the Kd ([2]; source organism: Dengue virus 1 Nauru/West Pac/1974) was 355 nM.

In the case of SFGCKPLTMF, the Kd [9, 20] is reported as 103 nM.

SIAMLKSKNI was tested, and the Kd [3, 21] was 55 nM, the Kd [4, 21] was 259 nM and the Kd [5, 21] was 1090 nM.

SILASSLLK was tested, and the Kd [2, 22] was 190 nM, the Kd [7, 22] was 13.8 nM and the Kd [10] was 11 nM.

For SLIYYQNEVT, the Kd [3, 21] was 606 nM, the Kd [4, 21] was 4310 nM and the Kd [5, 21] was 77.2 nM.

SNSEDLLKAV was tested, and the Kd [3, 23] was 15200 nM, the Kd [4, 23] was ≥ 10000 nM and the Kd [5, 23] was 17700 nM.

SSQRDTILK gave a Kd [2, 24] of 46.5 nM, a Kd [11] of 2570 nM and a Kd [7, 24] of 270 nM. For the same sequence, the Kd [12] was 388 nM and the Kd [13] was ≥ 24200 nM.

STIPETILEL gave a Kd [4, 22] of 79.6 nM and a Kd [14, 22] of 831 nM.

SVIDCNTCV showed an IC50 ([1]; source organism: Hepatitis C virus genotype 1) of 5000 nM.

TIAGGVCYYL gave a Kd [3, 21] of 34.3 nM, a Kd [4, 21] of 4.01 nM and a Kd [5, 21] of 0.036 nM.

TIAVSVYGAI gave a Kd [3, 21] of 582 nM, a Kd [4, 21] of 5390 nM and a Kd [5, 21] of 1550 nM.

TILATLNTL gave a Kd [3, 21] of 33.8 nM, a Kd [4, 21] of 25.6 nM and a Kd [5, 21] of 238 nM.

With TLILAGVSLL the Kd ([14]; source organism: Dengue virus 3 Martinique/1243/1999) was 6690 nM.

Sequence TLNRCALLR has a Kd [15] of 2230 nM.

For TTIAVSMAN, the Kd [14, 22] was 5160 nM.

TTTYKAFDW was tested, and the Kd [16] was 71.3 nM.

TWLVHKQWFL showed a Kd ([9]; source organism: Dengue virus 4 Philippines/H241/1956) of 124 nM.

In the case of TWSIHAHHQW, the Kd [17, 20] is reported as 1080 nM and the Kd [9, 20] is reported as 950 nM.

VDTRTPRPMP was tested, and the Kd ([2]; source organism: Dengue virus 3 Sri Lanka/1266/2000) was 415 nM.

With VLQQNNSFII the Kd [3, 21] was 1030 nM, the Kd [4, 21] was 9650 nM and the Kd [5, 21] was 665 nM.

VMDKNHAIFT was tested, and the Kd [3, 21] was 11500 nM, the Kd [4, 21] was ≥ 69800 nM and the Kd [5, 21] was 18700 nM.

VVISVIFYFI gave a Kd [3, 21] of 755 nM, a Kd [4, 21] of 542 nM and a Kd [5, 21] of 239 nM.

In the case of VVIVENDNV, the Kd [3, 21] is reported as ≥ 38000 nM, the Kd [4, 21] is reported as 4300 nM and the Kd [5, 21] is reported as 13200 nM.

Work on VYKEGTFHTM yielded a Kd [17, 22] of 14.7 nM.

WLKDSAIMVA was tested, and the Kd [3, 21] was 1320 nM, the Kd [4, 21] was 4840 nM and the Kd [5, 21] was 14.8 nM.

With WLLWPVTLA the Kd [3, 25] was 1.2 nM, the Kd [4, 25] was 17.4 nM and the Kd [5, 25] was 11.8 nM.

For YAVLSEYET, the Kd [3, 21] was ≥ 35100 nM, the Kd [4, 21] was 1330 nM and the Kd [5, 21] was 1780 nM.

YLDFGGPEG showed a Kd ([6]; source organism: Homo sapiens) of 1500 nM and a Kd [18] of 2460 nM.

With YMDDRDINP the IC50 ([1]; source organism: Vaccinia virus) was 27100 nM.

YVSSSYKDI was tested, and the Kd [3, 21] was 1200 nM, the Kd [4, 21] was 16600 nM and the Kd [5, 21] was 5040 nM.
